The values that follow come from patent US20110256180A1 (CHILDREN S HOSPITAL AND RESEARCH CENTER AT OAKLAND, published 2011).

Assay [1] deals with human complement factor H (human) (UniProt P08603). In words: ELISA, vs respective wildtype fHbp.
For assay [2], the target named is T1, human complement factor H (human, UniProt P08603 19-1231).
T1 construct: also called human fH; fH
In words: ELISA, fHbp on plate. (An ELISA detects its analyte on a solid surface through an enzyme-linked reagent.)

Assay [3] has as its target T1, human complement factor H. In words: ELISA, vs respective wildtype fHbp.
The target of assay [4] is T1, human complement factor H. Nature of the assay: ELISA, vs respective wildtype fHbp. This is another data set of the same source.

Positions count from the first letter of the chain named. Numbers in names are those of the source. Read-outs that look alike come from different tables or passages of the source.

T1 sequence (P08603 19-1231 limits assumed): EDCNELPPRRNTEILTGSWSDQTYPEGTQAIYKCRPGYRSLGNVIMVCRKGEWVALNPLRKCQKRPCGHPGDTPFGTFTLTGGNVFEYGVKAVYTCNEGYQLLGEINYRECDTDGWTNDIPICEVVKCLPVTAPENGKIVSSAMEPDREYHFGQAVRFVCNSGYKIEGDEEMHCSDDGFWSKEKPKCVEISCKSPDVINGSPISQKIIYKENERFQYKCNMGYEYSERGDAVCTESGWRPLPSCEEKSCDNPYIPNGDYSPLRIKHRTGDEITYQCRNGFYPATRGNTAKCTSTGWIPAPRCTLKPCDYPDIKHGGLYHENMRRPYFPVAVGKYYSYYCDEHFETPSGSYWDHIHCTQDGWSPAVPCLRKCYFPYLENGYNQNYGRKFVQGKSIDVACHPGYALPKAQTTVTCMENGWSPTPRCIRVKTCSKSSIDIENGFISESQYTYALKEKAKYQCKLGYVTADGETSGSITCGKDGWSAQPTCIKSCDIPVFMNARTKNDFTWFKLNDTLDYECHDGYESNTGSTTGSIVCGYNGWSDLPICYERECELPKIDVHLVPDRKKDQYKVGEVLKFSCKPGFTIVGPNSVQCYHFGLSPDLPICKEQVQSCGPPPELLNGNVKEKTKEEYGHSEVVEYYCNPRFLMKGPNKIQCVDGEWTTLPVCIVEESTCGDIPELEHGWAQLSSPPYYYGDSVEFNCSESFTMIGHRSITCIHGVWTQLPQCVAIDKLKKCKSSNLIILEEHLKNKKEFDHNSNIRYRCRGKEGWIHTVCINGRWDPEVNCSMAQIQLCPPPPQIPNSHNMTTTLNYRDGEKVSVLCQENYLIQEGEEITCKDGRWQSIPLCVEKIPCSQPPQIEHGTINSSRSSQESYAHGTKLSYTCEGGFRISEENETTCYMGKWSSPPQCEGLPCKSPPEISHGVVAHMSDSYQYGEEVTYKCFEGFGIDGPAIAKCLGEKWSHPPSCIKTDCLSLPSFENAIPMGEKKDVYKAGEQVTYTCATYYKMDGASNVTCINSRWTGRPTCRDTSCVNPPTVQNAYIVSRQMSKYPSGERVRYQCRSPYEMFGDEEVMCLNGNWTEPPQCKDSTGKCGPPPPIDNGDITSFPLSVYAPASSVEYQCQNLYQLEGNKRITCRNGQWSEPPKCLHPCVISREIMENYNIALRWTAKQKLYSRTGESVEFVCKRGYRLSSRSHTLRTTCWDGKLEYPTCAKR
Sequence of human complement factor H (human) (P08603 19-1231 limits assumed): as above

Turning to fHbp ID 74 R41S mutant, in assay [1], the Fold-Decrease in fH binding is over 50 fold. The molecule fHbp ID 9 R41S mutant returned a Fold-Decrease in fH binding in assay [1] of over 50 fold.

B1: fHbp ID 28, wild-type (strain M1239, variant group 3, modular group II) (other)
chain: CSSGGGGSGGGGVAADIGTGLADALTAPLDHKDKGLKSLTLEDSIPQNGTLTLSAQGAEKTFKAGDKDNSLNTGKLKNDKISRFDFVQKIEVDGQTITLASGEFQIYKQNHSAVVALQIEKINNPDKTDSLINQRSFLVSGLGGEHTAFNQLPGGKAEYHGKAFSSDDPNGRLHYSIDFTKKQGYGRIEHLKTLEQNVELAAAELKADEKSHAVILGDTRYGSEEKGTYHLALFGDRAQEIAGSATVKIGEKVHEIGIAGKQ
notes: Recombinant; also called Pep28; peptide 28
B1: in assay [2], the binding result is “binds”.

B2: fHbp ID 28 D201A mutant (other)
chain: B1 chain with D208A
notes: also called D201A (ID 28)
Turning to B2, the binding result in assay [2] was “binds”.

B3: fHbp ID 28 E218A mutant (other)
chain: B1 chain with E225A
notes: also called E218A (ID 28)
As for B3, in assay [2], the binding result was “binds”.

B4: fHbp ID 28 K245A mutant (other)
chain: B1 chain with K252A
For the molecule B4, the binding result in assay [2] was “binds”.

B5: fHbp ID 28 E197A mutant (other)
chain: B1 chain with E204A
In the case of B5, the binding result in assay [2] is “binds”.

B6: fHbp ID 15 E241K mutant (other)
chain: CSSGGGGSGGGGVAADIGAGLADALTAPLDHKDKGLKSLTLEDSISQNGTLTLSAQGAERTFKAGDKDNSLNTGKLKNDKISRFDFIRQIEVDGQLITLESGEFQVYKQSHSALTALQTEQVQDSEHSGKMVAKRQFRIGDIVGEHTSFGKLPKDVMATYRGTAFGSDDAGGKLTYTIDFAAKQGHGKIEHLKSPELNVDLAAADIKPDEKHHAVISGSVLYNQAEKGSYSLGIFGGQAQEVAGSAEVKTANGIRHIGLAAKQ
Take B6: the “Fold-Decrease in fH binding” value in assay [3] is 0 fold. Further, the “fold effect on fH binding relative to wildtype fHbp” value in assay [2] is under 2 fold.

B7: fHbp ID 15 S41P mutant (other)
chain: B6 chain with S46P, K249E
notes: also called Pep 15 S41P
With B7, the “Fold-Decrease in fH binding” value in assay [4] was over 50 fold. Further, in assay [2], the binding result is given as “no binding”.

B8: fHbp ID 14 (natural variant, variant group 1, modular group I) (other)
chain: CSSGGGGVAADIGAGLADALTAPLDHKDKSLQSLTLDQSVRKNEKLKLAAQGAEKTYGNGDSLNTGKLKNDKVSRFDFIRQIEVDGQLITLESGEFQVYKQSHSALTALQTEQEQDPEHSGKMVAKRRFKIGDIAGEHTSFDKLPKDVMATYRGTAFGSDDAGGKLTYTIDFAAKQGHGKIEHLKSPELNVELATAYIKPDEKHHAVISGSVLYNQDEKGSYSLGIFGGQAQEVAGSAEVETANGIHHIGLAAKQ
notes: Recombinant
Take B8: the binding result in assay [2] was “binds”.

B9: fHbp ID 22 R80A mutant (protein)
chain: CSSGGGGVAADIGAGLADALTAPLDHKDKSLQSLTLDQSVRKNEKLKLAAQGAEKTYGNGDSLNTGKLKNDKVSRFDFIAQIEVDGQLITLESGEFQIYKQDHSAVVALQIEKINNPDKIDSLINQRSFLVSGLGGEHTAFNQLPSGKAEYHGKAFSSDDPNGRLHYSIDFTKKQGYGRIEHLKTPEQNVELASAELKADEKSHAVILGDTRYGGEEKGTYHLALFGDRAQEIAGSATVKIREKVHEIGIAGKQ
Molecule B9 gave a Fold-Decrease in fH binding in assay [1] of over 50 fold.

B10: fHbp ID 22 E248A mutant (protein)
chain: B9 chain with A80R, E247A
Regarding B10, the Fold-Decrease in fH binding in assay [1] was over 50 fold.

B11: fHbp ID 22, wild-type (variant group 2, modular group III) (other)
chain: B9 chain with A80R
notes: Recombinant; also called ID 22 (III); WT ID 22
Consider B11, for which, in assay [4], the “Fold-Decrease in fH binding” value was 0 fold.

B12: fHbp ID 22 T220A/H222A double mutant (protein)
chain: B9 chain with A80R, T220A, H222A
As to B12, the Fold-Decrease in fH binding in assay [1] is over 50 fold.

B13: fHbp ID 22 D211A mutant (protein)
chain: B9 chain with A80R, D210A
As for B13, the Fold-Decrease in fH binding in assay [1] is over 50 fold.

B14: fHbp ID 22 G236I mutant (protein)
chain: B9 chain with A80R, G235I
Turning to B14, the Fold-Decrease in fH binding in assay [1] is over 50 fold.

B15: fHbp ID 22 E218A mutant (protein)
chain: B9 chain with A80R, E217A
In the case of B15, the Fold-Decrease in fH binding in assay [1] was over 50 fold.

B16: fHbp ID 22 D201A mutant (other)
chain: B9 chain with A80R, D200A
notes: also called D201A (ID 22)
For B16, the “Fold-Decrease in fH binding” value in assay [3] worked out at 0 fold.

B17: fHbp ID 22 A235G mutant (other)
chain: B9 chain with A80R, A234G
Consider B17, for which the “Fold-Decrease in fH binding” value in assay [3] is 0 fold.

B18: fHbp ID 22 E202A mutant (other)
chain: B9 chain with A80R, E201A
For B18, the “Fold-Decrease in fH binding” value in assay [3] stood at 0 fold.

B19: fHbp ID 22 R41S mutant (other)
chain: B9 chain with R41S, A80R
notes: also called R41S (ID 22)
Consider B19, for which the “Fold-Decrease in fH binding” value in assay [3] came out at 0 fold. For the same molecule, the “fold reduction in fH binding vs wildtype fHbp ID 22” value (shortened to “fold reduction in fH binding”) in assay [2] is under 4 fold.

B20: fHbp ID 22 Q38A mutant (other)
chain: B9 chain with Q38A, A80R
For the molecule B20, in assay [3], the “Fold-Decrease in fH binding” value was 0 fold. Also, the “fold reduction in fH binding” value in assay [2] is under 4 fold.

B21: fHbp ID 22 Q126A mutant (other)
chain: B9 chain with A80R, Q126A
On to B21, for which, in assay [3], the “Fold-Decrease in fH binding” value was 0 fold. Moreover, the “fold reduction in fH binding” value in assay [2] was under 4 fold.

B22: fHbp chimera I R41S mutant (other)
chain: CSSGGGGVAADIGAGLADALTAPLDHKDKGLQSLTLDQSVSKNEKLKLAAQGAEKTYGNGDSLNTGKLKNDKVSRFDFIRQIEVDGQLITLESGEFQVYKQSHSALTAFQTEQIQDSEHSGKMVAKRQFRIGDIAGEHTAFNQLPDGKAEYHGKAFSSDDAGGKLTYTIDFAAKQGHGKIEHLKTPEQNVELAAAELKADEKSHAVILGDTRYGSEEKGTYHLALFGDRAQEIAGSATVKIGEKVHEIGIAGKQ
notes: Recombinant; also called R41S mutant of the fHbp chimera I
With B22, in assay [2], the binding result was “no binding”.

B23: fHbp ID 77, wild-type (strain 8047, variant group 2, modular group VI) (other)
chain: CSSGGGGVAADIGARLADALTAPLDHKDKSLQSLTLDQSVRKNEKLKLAAQGAEKTYGNGDSLNTGKLKNDKVSRFDFIRQIEVDGQLITLESGEFQIYKQDHSAVVALQIEKINNPDKIDSLINQRSFLVSGLGGEHTAFNQLPDGKAEYHGKAFSSDDAGGKLTYTIDFAAKQGHGKIEHLKTPEQNVELAAAELKADEKSHAVILGDTRYGSEEKGTYHLALFGDRAQEIAGSATVKIGEKVHEIGIAGKQ
notes: Recombinant; also called ID 77 (VI); wildtype fHbp ID 77
Consider B23, for which the “Fold-Decrease in fH binding” value in assay [4] was determined as 0 fold.

B24: fHbp ID 77 R41S mutant (other)
chain: B23 chain with R41S
notes: also called R41S (ID 77)
On to B24, for which, in assay [3], the “Fold-Decrease in fH binding” value was 0 fold.

B25: fHbp ID 77 K113A mutant (other)
chain: B23 chain with K113A
For the molecule B25, the “Fold-Decrease in fH binding” value in assay [3] worked out at 0 fold.

B26: fHbp ID 77 D121A mutant (other)
chain: B23 chain with D121A
Regarding B26, the “Fold-Decrease in fH binding” value in assay [3] is 0 fold. For the same molecule, the “fold decrease in fH binding compared with wildtype fHbp ID 77” value in assay [2] is about 4 fold.

B27: fHbp ID 77 K113A/D121A double mutant (other)
chain: B23 chain with K113A, D121A
With B27, in assay [2], the “fold decreased binding of fH” value is about 10 fold.

B28: fHbp ID 77 K119A mutant (other)
chain: B23 chain with K119A
For the molecule B28, in assay [3], the “Fold-Decrease in fH binding” value turned out to be 0 fold. Further, the “fold increase in fH binding compared to wildtype fHbp ID 77” value in assay [2] was about 4 fold.
